This test concerns the target T1, HLA-E (Homo sapiens, UniProt P13747).
T1 construct: expressed in transfected cells; host or cells: mouse lymphoma cell line RMA-S/HLA-E/LFA-3, a gift from Chiara Romagnani, DRFZ Berlin
Briefly: HLA-E stabilization by UL40 peptides on HLA-E-expressing RMA-S cells. The format is cell-based. Conditions: for Interpretation: HLA-E binding class of UL40 variant; for Mean MFI: HLA-E expression on the cell surface of RMA-S cells incubated with UL40 peptide; for HLA-E Upregulation: HLA-E-expressing RMA-S cells incubated with UL40 peptide. The text has this:
Functionally, the expansion of NKG2C^+ NK cells in response to HCMV infections depends on a highly polymorphic HCMV UL40-encoded peptide in the respective infecting HCMV variant, which upregulates the NKG2C ligand HLA-E on the surface of HCMV-infected cells^52. […] HCMV variants were obtained from all 145 HCMV-seropositive MS patients during an episode of HCMV reactivation between EBV seroconversion and MS diagnosis, as well as from all HCMV seropositive EBNA^high (N=80) and EBNA^low (N=85) controls in any of the serum samples collected from the individuals over time. […] Therefore, we incubated HLA-E-expressing RMA-S cells with each of the 18 UL40 peptides and measured HLA-E expression on the cell surface.

T1 sequence (P61769 21-119): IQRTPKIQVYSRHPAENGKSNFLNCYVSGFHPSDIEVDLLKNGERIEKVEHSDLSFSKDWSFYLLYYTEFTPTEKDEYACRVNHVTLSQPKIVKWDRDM
T1 sequence (P13747 22-358): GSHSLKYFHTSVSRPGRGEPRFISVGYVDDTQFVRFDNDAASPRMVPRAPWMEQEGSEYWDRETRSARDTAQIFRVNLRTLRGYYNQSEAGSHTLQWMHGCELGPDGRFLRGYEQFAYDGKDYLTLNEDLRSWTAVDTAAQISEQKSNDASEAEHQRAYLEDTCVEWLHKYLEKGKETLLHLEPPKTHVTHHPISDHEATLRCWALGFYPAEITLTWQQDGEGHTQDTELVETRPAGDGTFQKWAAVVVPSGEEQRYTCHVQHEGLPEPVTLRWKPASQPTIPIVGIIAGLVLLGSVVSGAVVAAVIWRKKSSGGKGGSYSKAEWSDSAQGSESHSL

Regarding VMTPRTLVL [HCMV UL40 peptide variant], the Interpretation entry is on record as “Low Binding (↑)”, the “Mean MFI” value is given as 2488 and the “HLA-E Upregulation” value was 65.5%.
For VMAPRILVL [HCMV UL40 peptide variant], the Interpretation entry is recorded as “Low Binding (↑)”, the “Mean MFI” value turned out to be 2299 and the “HLA-E Upregulation” value was 60.5%.
In the case of VMAPRILIL [HCMV UL40 peptide variant], the Interpretation result is “Low Binding (↑)”, the “Mean MFI” value came to 2056 and the “HLA-E Upregulation” value worked out at 54.2%.
The matching figures for VVAPRTLVL [HCMV UL40 peptide variant]: “Low Binding (↑)”, 1840 and 48.5%.
As for GMAPRTLLL [HCMV UL40 peptide variant], the Interpretation entry was “Low Binding (↑)”, the “Mean MFI” value stood at 1575 and the “HLA-E Upregulation” value came out at 41.5%.
The matching figures for VMAPRSLLL [HCMV UL40 peptide variant]: “Low Binding (↑)”, 2351 and 61.9%.
For the sequence VMTPRTLLL [HCMV UL40 peptide variant], the Interpretation entry is on record as “Low Binding (↑)”, the “Mean MFI” value worked out at 2519 and the “HLA-E Upregulation” value turned out to be 66.3%.
The matching figures for VIAPRTLIL [HCMV UL40 peptide variant]: “Low Binding (↑)”, 1541 and 40.6%.
The matching figures for VMGPRTLIL [HCMV UL40 peptide variant]: “Low Binding (↑)”, 1858 and 48.9%.
For VMAPRSLIL [HCMV UL40 peptide variant], the Interpretation result was “Low Binding (↑)”, the “Mean MFI” value is 2074 and the “HLA-E Upregulation” value is 54.6%.
The matching figures for VLAPRTLLL [HCMV UL40 peptide variant]: “Low Binding (↑)”, 2059 and 54.2%.
For VMTPRTLIL [HCMV UL40 peptide variant] the same measures were “Low Binding (↑)”, 2633 and 69.3%.
Turning to VMAPWTLIL [HCMV UL40 peptide variant], the Interpretation entry was “Low Binding (↑)”, the “Mean MFI” value is listed as 1210 and the “HLA-E Upregulation” value is reported as 31.9%.
VMAPWTLVL [HCMV UL40 peptide variant]: the Interpretation entry is “Low Binding (↑)”, the “Mean MFI” value stood at 1503 and the “HLA-E Upregulation” value is 39.6%.

For the origin of these results see patent US20260144862A1, “MATERIALS AND METHODS TO TREAT EPSTEIN-BARR VIRUS (EBV) AND EBV-INDUCED DISEASES” (Medizinische Universität Wien, priority 2022, published 2026).
